{
  "source": "patent US20240251767A1",
  "target": "Spike protein of the COVID-19 Spike-ACE2 Binding Assay Kit (Raybiotech) (SARS-CoV2) (UniProt P0DTC2)",
  "data": [
    {"substance": "human SAT Nb-Fc control VH-Ab-8 (HAb8-S) (Fc fusion)", "values": [
      {"measurement": "IC50", "result": 0.079, "unit": "nM"}
    ]}
  ]
}
